From US8859223B1, “Compositions and methods for imaging beta-secretase activity in living cells and organisms” (Duke University, priority 2012, dated 2014)
Square brackets hold non-standard residues; d marks the D form. Ends that are not written are not given here. 2Thi = N[C@@H](Cc1cccs1)C(=O)O; Nva = CCC[C@H](N)C(=O)O

What was measured:
BACE [1] = target: T1, BACE (Homo sapiens, UniProt P56817); assay: Evaluation of peptides as BACE substrates (percent cleavage by LC-MS); format: biochemical; conditions: 10 hr incubation with BACE enzyme, determined by LC-MS
T1 sequence (P56817 46-501): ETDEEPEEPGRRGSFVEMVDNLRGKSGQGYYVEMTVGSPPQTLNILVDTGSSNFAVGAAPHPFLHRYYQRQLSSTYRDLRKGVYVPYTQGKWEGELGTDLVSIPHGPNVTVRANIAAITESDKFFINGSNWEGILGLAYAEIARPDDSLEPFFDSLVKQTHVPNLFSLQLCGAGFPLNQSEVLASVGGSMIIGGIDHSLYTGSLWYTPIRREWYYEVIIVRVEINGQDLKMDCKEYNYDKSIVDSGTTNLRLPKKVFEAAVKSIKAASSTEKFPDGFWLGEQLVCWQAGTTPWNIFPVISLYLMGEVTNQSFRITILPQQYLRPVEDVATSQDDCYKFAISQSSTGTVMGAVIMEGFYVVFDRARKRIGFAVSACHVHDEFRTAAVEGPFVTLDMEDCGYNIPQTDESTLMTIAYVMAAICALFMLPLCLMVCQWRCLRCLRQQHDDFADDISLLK
Protocol: In order to evaluate a range of peptide amino acid sequences as BACE substrates for the probes, the peptides shown below in Table II were incubated with BACE enzyme under conditions suitable for enzyme activity and the percent cleavage after 10 hr was determined by LC-MS. Thus, in addition to SEQ ID NO: 1 present in β-MAP, the peptide sequences corresponding to SEQ ID NO's: 2-6 and 10-11 can also be useful as BACE substrates in the BACE probes of the present disclosure. For example, the specific BACE substrate sequence can be chosen based on the level of cleavage desired for a particular use for which the probe will be utilized. In can be envisioned that a higher or a lower amount of BACE probe cleavage could be desirable based on the different uses of the BACE probes.

BACE [2] = target: T1, BACE; conditions: compared to wild type; cited from earlier work

Percent Cleavage after 10 hr Incubation with BACE (BACE [1]) | Substance | increase in Kcat/KM (BACE [2])
0.5% | APSL-DAHF (APSLDAHF) [peptide evaluated as BACE substrate] | 
Not Detected | ASNL-DAHF (ASNLDAHF) [peptide evaluated as BACE substrate] | 
1% | DETL-DAHF (DETLDAHF) [peptide evaluated as BACE substrate] | 
25% | EI(Thi)(Thi)-(Nva)AHF (EI[2Thi][2Thi][Nva]AHF) [BACE substrate polypeptide with unnatural amino acids thienyl and norvaline] | 
20% | EIDL-MVLD (EIDLMVLD) [BACE substrate polypeptide] | 
5% | EIDL-SSHD (EIDLSSHD) [BACE substrate polypeptide] | 
85% | EVNF-EVEF (EVNFEVEF) [BACE substrate polypeptide] | 
50% | EVNL-DAEF (EVNLDAEF) [BACE substrate polypeptide] | 
50% | EVNL-DAHF (EVNLDAHF) [BACE substrate polypeptide] | 
3.5% | EVNL-SSHD (EVNLSSHD) [BACE substrate polypeptide] | 
 | Swedish mutant APP: amyloid precursor protein with the Swedish mutation | 60 fold
